Experimental data as given in patent US20160068605A1 (Janssen / Centocor, published 2016).

How the values were obtained:
[1] = molecular target: T1, cyno CD123 ECD displayed on pDisplay-transfected cells (cynomolgus monkey); assay: MSD-CAT, cynoCD123 cells, assay-2; apparent KD (bivalent)
T1 construct: ECD anchored on the surface of stably transfected HEK293 cells; also called cynoCD123 SP1 cells; cynoCD123 cells
T1 chain: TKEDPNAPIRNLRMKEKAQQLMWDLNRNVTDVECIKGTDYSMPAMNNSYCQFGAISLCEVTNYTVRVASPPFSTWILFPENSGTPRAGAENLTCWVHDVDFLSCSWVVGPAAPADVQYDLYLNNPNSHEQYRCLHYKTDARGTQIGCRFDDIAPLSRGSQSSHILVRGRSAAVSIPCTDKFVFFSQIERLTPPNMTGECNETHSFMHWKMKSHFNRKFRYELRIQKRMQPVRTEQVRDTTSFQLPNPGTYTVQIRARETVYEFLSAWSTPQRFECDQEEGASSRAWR

[2] = molecular target: T1, cyno CD123 ECD displayed on …; assay: MSD-CAT, cynoCD123 cells, assay-1; apparent KD (bivalent)

B1: I3RB18 (antibody, IgG1, V domains shown)
VH: EVQLVQSGAEVKKPGESLKISCKGSGYSFTSYWISWVRQMPGKGLEWMGIIDPSDSDTRYSPSFQGQVTISADKSISTAYLQWSSLKASDTAMYYCARGDGSTDLDYWGQGTLVTVSS
VL: EIVLTQSPGTLSLSPGERATLSCRASQSVSSSYLAWYQQKPGQAPRLLIYGASSRATGIPDRFSGSGSGTDFTLTISRLEPEDFAVYYCQQDYGFPWTFGQGTKVEIK
notes: IgG1; also called 13RB18; mAb I3RB18
**Q.** For B1, which Kd [1] is on record?
**A.** > 11.9 nM

**Q.** And the Kd [2]?
**A.** 0.832 nM
